The values below come from patent publication US20150064134A1.

Experiment in all cases: cell-based or functional assay
Assay [1] deals with PAR-1Bα(h) (human) (UniProt Q7KZI7).
The target of assay [2] is c-RAF(h) (human) (UniProt P04049).
The target in assay [3] is GRK5(h) (human) (UniProt P34947).
The target in assay [4] is PAK6(h) (human) (UniProt Q9NQU5).
Assay [5] deals with MAPK1(h) (human) (UniProt P28482).
In assay [6] the target is IGF-1R(h) (human) (UniProt P08069).
Assay [7] concerns the target Tie2(R849W)(h) (human) (UniProt Q02763).
Assay [8] deals with CK2α2(h) (human) (UniProt P19784).

Chain of IGF-1R(h) (human) (P08069 959-1367 limits assumed): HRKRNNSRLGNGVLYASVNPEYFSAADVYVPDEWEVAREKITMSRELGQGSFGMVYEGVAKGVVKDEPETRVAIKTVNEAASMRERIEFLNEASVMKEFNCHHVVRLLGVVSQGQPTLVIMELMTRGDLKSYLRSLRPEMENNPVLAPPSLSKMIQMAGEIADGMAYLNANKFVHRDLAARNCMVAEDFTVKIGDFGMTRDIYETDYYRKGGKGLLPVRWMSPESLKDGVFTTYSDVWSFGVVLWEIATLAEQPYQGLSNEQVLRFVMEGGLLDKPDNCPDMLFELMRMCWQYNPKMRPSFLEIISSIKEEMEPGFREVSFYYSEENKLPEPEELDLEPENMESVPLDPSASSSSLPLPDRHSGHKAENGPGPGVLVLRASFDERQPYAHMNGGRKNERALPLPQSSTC
Chain of Tie2(R849W)(h) (human) (Q02763 771-1124 R849W limits assumed): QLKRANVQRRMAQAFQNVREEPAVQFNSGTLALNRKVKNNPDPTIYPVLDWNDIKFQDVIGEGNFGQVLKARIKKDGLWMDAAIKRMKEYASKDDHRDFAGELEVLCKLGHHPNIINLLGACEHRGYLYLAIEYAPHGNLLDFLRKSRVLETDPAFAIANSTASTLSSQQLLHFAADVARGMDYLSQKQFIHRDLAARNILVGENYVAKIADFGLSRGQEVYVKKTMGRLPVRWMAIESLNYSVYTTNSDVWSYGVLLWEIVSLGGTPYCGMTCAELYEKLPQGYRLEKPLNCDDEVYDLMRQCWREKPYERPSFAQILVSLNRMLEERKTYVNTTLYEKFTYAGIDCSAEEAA
Chain of MAPK1(h) (human) (P28482 whole entry): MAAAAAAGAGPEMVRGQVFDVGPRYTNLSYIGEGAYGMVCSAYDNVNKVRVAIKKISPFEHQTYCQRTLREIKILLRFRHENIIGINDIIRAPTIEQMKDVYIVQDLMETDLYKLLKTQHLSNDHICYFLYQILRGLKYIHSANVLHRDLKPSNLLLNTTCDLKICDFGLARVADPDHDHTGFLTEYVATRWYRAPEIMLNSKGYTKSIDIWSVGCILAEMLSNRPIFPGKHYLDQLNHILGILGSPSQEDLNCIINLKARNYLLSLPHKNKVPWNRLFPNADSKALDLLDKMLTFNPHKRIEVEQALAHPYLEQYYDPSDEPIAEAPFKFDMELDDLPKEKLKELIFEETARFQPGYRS

With MMI-0500 (peptide), the % activity at 100 µM turned out to be 97% in assay [1] and 19% in assay [2].
Turning to MMI-0400 (peptide), the % activity at 100 µM in assay [3] worked out at 131%; in assay [4], 100%; in assay [5], 100%; in assay [6], 90%; in assay [7], 108%; in assay [8] it was 96%.
